Source: patent publication US20060166191A1

Molecular target: wild-type Gag expressed from the full-length proviral construct pNL4-3 (HIV-1) (UniProt P12493)
Test: cell-based or functional assay

AP3D-5′, AP3 δ subunit residues 1-742 (from UniProt O14617 1-742)
cells with particle budding among 100 consecutive 293T cells (thin-section electron microscopy), NL4-3 with AP3D-5′: 0 cells of 100
